According to US20250019737A1:

Legend:
[1] = biological target: nDHFR-linker 1-His6-Ub (pND-Ub) (mouse) (UniProt P00375)
[2] = biological target: nDHFR-linker 1-His6-Ub (pND-Ub) (mouse) (UniProt P00375); experiment: cell-based or functional assay

Sequence of vWA T173,175R (P00375 whole entry): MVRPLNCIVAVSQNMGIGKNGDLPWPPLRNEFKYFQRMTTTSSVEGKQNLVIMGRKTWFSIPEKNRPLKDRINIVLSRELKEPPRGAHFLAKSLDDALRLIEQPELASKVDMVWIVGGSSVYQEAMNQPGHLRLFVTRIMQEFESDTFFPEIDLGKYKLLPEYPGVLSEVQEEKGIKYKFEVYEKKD
Sequence of vWA (P00375 whole entry): as above
Sequence of vWA Q149R (P00375 whole entry, stated change not applied): as the sequence (P00375 whole entry) above
Sequence of vWA Q149A (P00375 whole entry, stated change not applied): as the sequence (P00375 whole entry) above

Growth efficiency (max growth density divided by the time of half max growth); number matched to the legend entry by its order in the column and its grey tone [1]	bacterial growth on trimethoprim, split DHFR, incomplete ubiquitination cascade (ΔE1, ΔE2) [2]	Substance
62		vWA T173,175R (from UniProt P00375)
1230		vWA (from UniProt P00375)
516		vWA Q149R (from UniProt P00375)
715		vWA Q149A (from UniProt P00375)
	0.1 µg/mL	cDHFR-Vps9 (pCD-Sub) (from UniProt P00375 109-187; P54787 1-451)
